Test results: patent US20130149320A1 (CENTRE NATIONAL DE LA RECHERCHE SCIENTIFIQUE, published 2013)
Ends that are not written are not given here.

Target: T1, Asf1 from Xenopus laevis (endogenous, high speed egg extract) (Xenopus laevis, UniProt Q69DB9 1-201, limits assumed)
T1 construct: also called Asf1 from X. laevis
Experiment: GST pull-down on Xenopus egg extract (HSE), Western blot
Procedure: FIG. 22. Inhibition of chromatin assembly with the B-domain of HIRA. FIG. 22A Binding of the wild-type but not the mutated form (I461D) of the B-domain of HIRA to Asf1. GST pull-down was performed on HSE extracts with […] of recombinant GST B-domain of HIRA proteins on beads. Input and flowthrough are 10% of the immunoprecipitated material. […] FIG. 22B The B-domain of HIRA inhibits nucleosome assembly independent of replication. In vitro nucleosome assembly reactions independent of DNA synthesis were performed with increasing amounts (2, 4 or 8 mg) of the recombinant GST HIRA B-domain or its mutated form (I461D) added directly into the nucleosome assembly reaction mix. The purified plasmid DNA was analyzed by agarose elecrophoresis and was visualized by staining with ethidium bromide (EtBr). The migration positions of DNA plasmid form 1 (supercoiled), form 11 (nicked circular) and lr (closed circular) are indicated.
GST pull-downs were performed by mixing […] of High speed xenopus egg extract (HSE prepared as described in (Almouzni, 1998)), 1X nucleosome assembly buffer, 300 ng p^{bluescript}, 4 mM ATP, […] creatine kinase and 3 mg of recombinant protein on beads during 3 h at 23° C. The flow through was recovered and beads were washed 3 times with PBS supplemented with 150 mM NaCl and 0,5% NP40. Different fractions were loaded on a NuPAGE 4-12% (Invitrogen) and ran in MES buffer. […]

T1 sequence (Q69DB9 whole entry): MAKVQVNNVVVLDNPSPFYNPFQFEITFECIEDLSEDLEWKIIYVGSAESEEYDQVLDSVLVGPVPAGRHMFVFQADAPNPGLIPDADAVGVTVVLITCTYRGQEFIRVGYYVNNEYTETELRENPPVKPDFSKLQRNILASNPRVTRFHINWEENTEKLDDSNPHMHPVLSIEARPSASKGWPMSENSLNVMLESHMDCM

B1: recombinant GST HIRA B-domain I461D (mutated Xenopus laevis HIRA B-domain, aa 435-480) (other, not shown: a dimerising Fc or GST; small tags and cut ends)
chain: GESLEDIRKNLLKKQVETRTADGRRRDTPLCIAQLDTGDFSTAFFN
modifications: also: GST fusion tag, sequence not given here
notes: also called mutated GST-B-domain I461D; mutated form (I461D) of the B-domain of HIRA
binding result: no binding (tested: 3 mg of recombinant protein on beads)
